The supplement of paper PMC10065799, “High-throughput profiling of sequence recognition by tyrosine kinases and SH2 domains using bacterial peptide display” (eLife, 2023)

Columns and labels:
Fyn = Fyn (UniProt P06241); assay: phosphorylation enrichment, bacterial display (enrichment ratio); higher = better substrate or ligand; peptides without Tyr show the background
FGFR3 = FGFR3 (UniProt P22607); assay: as above
c-Abl (mouse) = assay: as above
EPHB2 = EPHB2 (UniProt P29323); assay: as above
Fes = Fes (UniProt P07332); assay: as above
MERTK = MERTK (UniProt Q12866); assay: as above
AncSZ = assay: as above
FGFR1 = FGFR1 (UniProt P11362); assay: as above
Jak2 = Jak2 (UniProt O60674); assay: as above
c-Src = assay: as above
Fer (mouse) = assay: as above
Hck = Hck (UniProt P08631); assay: as above
EPHB1 = EPHB1 (UniProt P54762); assay: as above
SHP2-C SH2 = assay: SH2 binding enrichment of the phosphorylated peptide, bacterial display (enrichment ratio); higher = better substrate or ligand; peptides without Tyr show the background
Grb2 SH2 = Grb2 SH2 (UniProt P62993); assay: as above
c-Src SH2 = assay: as above
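For SH2 binding enrichment of the phosphorylated peptide, bacterial display in this document: peptide library displayed on the E. coli surface as eCPX fusions, selected cells deep-sequenced, score is each peptide's frequency after selection divided by its frequency in the input.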
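For phosphorylation enrichment, bacterial display in this document: 11-residue human phosphosite peptides and single-mutation variants displayed on the E. coli surface, counted by deep sequencing, each peptide's frequency after selection divided by its frequency in the unselected input library; frequency after pTyr selection over input frequency; kinase dosed for 20-30% of maximal phosphorylation in three min.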

Hck, sequence (P08631 whole entry, looked up): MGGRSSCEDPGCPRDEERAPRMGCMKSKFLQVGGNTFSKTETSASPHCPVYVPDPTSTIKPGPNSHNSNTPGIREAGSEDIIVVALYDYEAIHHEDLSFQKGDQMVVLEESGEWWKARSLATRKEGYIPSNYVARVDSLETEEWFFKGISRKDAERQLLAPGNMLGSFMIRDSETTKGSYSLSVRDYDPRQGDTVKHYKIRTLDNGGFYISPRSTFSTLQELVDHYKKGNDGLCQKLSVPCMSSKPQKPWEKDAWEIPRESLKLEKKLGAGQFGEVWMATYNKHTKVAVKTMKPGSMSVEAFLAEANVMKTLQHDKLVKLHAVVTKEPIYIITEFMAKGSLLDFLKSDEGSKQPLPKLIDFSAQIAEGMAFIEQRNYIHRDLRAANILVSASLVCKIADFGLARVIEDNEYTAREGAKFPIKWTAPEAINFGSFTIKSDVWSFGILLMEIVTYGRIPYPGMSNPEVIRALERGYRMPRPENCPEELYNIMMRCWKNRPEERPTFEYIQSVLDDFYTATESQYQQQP
Jak2, sequence (O60674 whole entry, looked up): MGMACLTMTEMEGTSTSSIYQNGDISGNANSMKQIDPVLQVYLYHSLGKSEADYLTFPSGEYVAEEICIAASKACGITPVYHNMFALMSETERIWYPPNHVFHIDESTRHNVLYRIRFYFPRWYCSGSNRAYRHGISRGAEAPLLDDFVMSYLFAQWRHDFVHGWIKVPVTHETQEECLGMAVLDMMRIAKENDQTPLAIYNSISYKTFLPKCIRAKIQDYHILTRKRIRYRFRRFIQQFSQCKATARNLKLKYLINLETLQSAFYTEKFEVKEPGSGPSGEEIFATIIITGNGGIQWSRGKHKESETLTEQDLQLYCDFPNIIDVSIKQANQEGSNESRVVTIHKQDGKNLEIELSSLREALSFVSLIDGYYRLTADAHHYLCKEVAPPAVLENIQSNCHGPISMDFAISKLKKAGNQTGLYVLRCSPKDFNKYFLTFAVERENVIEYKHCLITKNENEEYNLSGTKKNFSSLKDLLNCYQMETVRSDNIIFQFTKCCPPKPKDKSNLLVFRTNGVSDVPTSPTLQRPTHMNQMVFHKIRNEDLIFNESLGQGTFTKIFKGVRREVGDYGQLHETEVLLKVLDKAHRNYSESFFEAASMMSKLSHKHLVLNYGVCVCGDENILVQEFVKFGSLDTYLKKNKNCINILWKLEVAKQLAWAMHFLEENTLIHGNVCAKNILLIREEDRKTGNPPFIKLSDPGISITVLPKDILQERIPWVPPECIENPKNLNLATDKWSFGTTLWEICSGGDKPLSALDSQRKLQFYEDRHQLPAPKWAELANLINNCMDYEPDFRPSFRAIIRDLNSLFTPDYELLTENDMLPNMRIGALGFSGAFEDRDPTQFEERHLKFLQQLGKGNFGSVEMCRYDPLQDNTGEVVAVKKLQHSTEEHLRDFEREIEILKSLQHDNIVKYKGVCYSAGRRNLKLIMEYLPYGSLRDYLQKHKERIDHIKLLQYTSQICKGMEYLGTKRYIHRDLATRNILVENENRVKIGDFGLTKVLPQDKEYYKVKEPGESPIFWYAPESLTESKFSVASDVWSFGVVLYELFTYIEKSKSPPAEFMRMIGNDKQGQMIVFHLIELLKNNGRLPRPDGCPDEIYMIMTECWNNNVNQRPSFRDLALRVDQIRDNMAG
EPHB1, sequence (P54762 whole entry, looked up): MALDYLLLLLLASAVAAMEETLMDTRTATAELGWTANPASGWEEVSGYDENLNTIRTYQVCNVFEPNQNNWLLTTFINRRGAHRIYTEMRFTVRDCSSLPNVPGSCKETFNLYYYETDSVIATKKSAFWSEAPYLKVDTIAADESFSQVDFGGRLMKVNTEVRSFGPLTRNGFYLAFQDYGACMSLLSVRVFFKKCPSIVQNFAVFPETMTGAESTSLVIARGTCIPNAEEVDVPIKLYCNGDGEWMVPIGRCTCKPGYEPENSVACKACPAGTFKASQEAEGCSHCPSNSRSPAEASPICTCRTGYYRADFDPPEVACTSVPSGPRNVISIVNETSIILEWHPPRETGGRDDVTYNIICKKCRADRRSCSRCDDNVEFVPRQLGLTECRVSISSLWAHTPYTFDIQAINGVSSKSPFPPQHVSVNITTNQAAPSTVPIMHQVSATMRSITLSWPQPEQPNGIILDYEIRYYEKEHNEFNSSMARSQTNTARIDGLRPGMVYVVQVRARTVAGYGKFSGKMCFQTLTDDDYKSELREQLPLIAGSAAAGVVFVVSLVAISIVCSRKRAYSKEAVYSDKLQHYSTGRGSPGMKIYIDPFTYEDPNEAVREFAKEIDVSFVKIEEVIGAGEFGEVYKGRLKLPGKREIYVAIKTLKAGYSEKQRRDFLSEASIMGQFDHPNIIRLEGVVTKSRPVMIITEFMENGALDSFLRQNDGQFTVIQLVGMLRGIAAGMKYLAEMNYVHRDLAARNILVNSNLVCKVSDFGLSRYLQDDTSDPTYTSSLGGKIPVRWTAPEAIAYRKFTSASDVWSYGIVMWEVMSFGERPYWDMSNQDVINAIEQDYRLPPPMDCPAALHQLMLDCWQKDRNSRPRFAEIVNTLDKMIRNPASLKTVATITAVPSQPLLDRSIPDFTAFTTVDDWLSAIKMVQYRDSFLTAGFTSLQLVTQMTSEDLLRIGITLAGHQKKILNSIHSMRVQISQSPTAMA
FGFR1, sequence (P11362 whole entry, looked up): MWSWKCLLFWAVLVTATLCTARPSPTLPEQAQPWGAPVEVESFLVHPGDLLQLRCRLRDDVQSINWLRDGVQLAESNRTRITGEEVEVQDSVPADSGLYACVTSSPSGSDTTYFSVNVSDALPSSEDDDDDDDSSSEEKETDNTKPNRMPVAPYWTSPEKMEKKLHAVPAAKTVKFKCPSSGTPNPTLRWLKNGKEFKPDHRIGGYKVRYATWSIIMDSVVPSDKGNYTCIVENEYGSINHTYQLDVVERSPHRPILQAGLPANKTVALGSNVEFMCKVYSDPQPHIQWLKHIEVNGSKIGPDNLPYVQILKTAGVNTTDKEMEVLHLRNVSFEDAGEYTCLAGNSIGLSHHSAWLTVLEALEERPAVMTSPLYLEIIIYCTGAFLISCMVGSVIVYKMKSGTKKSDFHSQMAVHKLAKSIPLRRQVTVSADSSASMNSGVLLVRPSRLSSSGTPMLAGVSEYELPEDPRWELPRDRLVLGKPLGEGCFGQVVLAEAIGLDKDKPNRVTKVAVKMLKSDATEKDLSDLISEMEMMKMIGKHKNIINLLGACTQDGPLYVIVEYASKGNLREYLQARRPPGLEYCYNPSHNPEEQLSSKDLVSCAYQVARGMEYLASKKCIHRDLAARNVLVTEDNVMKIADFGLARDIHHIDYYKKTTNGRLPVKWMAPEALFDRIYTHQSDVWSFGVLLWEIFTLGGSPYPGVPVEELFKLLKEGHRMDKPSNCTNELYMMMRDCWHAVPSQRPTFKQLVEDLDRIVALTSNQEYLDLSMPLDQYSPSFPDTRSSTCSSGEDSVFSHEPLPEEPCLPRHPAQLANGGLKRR
Fes, sequence (P07332 whole entry, looked up): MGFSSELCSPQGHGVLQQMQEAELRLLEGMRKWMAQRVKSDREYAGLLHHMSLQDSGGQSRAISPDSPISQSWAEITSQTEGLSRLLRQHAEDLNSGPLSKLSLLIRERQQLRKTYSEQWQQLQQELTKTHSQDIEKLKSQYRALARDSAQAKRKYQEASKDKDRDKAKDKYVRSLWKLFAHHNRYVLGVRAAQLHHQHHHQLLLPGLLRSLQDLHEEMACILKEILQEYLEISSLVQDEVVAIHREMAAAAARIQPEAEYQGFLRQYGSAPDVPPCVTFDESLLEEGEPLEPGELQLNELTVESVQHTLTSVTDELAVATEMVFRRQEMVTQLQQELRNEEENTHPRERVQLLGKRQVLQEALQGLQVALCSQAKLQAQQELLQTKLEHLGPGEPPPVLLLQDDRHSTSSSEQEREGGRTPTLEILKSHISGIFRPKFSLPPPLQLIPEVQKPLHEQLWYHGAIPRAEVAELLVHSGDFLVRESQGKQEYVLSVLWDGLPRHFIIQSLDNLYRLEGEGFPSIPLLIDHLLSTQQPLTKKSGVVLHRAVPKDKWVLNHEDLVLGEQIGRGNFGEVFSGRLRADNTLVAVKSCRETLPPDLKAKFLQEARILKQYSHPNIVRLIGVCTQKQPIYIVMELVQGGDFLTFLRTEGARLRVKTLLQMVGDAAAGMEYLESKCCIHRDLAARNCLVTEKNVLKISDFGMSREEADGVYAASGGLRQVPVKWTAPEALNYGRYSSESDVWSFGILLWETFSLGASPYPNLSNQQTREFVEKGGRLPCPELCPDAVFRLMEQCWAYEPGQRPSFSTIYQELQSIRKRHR
FGFR3, sequence (P22607 whole entry, looked up): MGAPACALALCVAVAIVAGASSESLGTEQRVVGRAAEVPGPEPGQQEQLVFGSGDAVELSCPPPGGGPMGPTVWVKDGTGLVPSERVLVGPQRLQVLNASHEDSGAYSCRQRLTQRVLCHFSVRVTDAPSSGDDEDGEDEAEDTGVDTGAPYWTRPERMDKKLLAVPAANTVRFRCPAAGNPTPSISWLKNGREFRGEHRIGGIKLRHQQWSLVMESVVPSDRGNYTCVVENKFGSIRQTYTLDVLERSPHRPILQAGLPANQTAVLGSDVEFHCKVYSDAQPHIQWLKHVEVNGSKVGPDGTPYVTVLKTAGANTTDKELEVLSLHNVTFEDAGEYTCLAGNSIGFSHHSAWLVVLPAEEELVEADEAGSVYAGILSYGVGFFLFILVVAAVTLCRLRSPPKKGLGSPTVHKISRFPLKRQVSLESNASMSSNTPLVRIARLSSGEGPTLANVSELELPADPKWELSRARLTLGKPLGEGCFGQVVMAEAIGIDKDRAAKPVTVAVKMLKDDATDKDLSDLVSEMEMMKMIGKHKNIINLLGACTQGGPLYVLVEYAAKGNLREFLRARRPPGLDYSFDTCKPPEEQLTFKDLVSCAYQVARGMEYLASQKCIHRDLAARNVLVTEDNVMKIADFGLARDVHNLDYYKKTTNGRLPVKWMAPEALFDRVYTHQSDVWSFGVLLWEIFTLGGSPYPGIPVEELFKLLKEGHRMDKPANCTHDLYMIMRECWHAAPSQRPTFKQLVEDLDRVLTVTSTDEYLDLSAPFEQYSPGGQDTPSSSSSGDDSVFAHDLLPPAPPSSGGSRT

Sequence | phosphorylation enrichment (Fyn) | phosphorylation enrichment (FGFR3) | phosphorylation enrichment (c-Abl (mouse)) | phosphorylation enrichment (EPHB2) | phosphorylation enrichment (Fes) | phosphorylation enrichment (MERTK) | phosphorylation enrichment (AncSZ) | phosphorylation enrichment (FGFR1) | phosphorylation enrichment (Jak2) | phosphorylation enrichment (c-Src) | phosphorylation enrichment (Fer (mouse)) | phosphorylation enrichment (Hck) | phosphorylation enrichment (EPHB1) | SH2 binding enrichment (SHP2-C SH2) | SH2 binding enrichment (Grb2 SH2) | SH2 binding enrichment (c-Src SH2)
ANLAKYGNPNE [BCHE_Y505_F502L] | 0.385 | 0.65 | 0.565 | 0.455 | 0.779 | 0.379 | 0.778 | 0.392 | 0.622 | 0.306 | 0.391 | 0.403 | 0.492 | 0.639 | 0.645 | 0.425
ANQDDYISFRH [IMP4_Y226] | 0.899 | 0.967 | 0.557 | 0.469 | 0.841 | 0.482 | 1.17 | 1.07 | 0.901 | 1.11 | 0.357 | 1.19 | 0.507 | 0.617 | 0.821 | 0.46
APNEFYDGDHD [HDAC3_Y414] | 0.535 | 1.18 | 1.04 | 0.605 | 1.29 | 0.602 | 1.3 | 0.624 | 1.32 | 0.574 | 0.59 | 0.769 | 0.613 | 0.632 | 0.727 | 0.57
ARGMEYLAEQK [MST1R_Y1198_G1195S] | 0.491 | 0.826 | 0.599 | 0.47 | 0.914 | 0.435 | 0.807 | 0.39 | 0.77 | 0.381 | 0.384 | 0.46 | 0.488 | 0.603 | 0.741 | 0.524
ASPALYRLDLD [TRIL_Y352] | 0.922 | 0.688 | 0.763 | 0.596 | 1.16 | 0.484 | 0.798 | 0.552 | 0.873 | 1.84 | 0.484 | 0.617 | 0.818 | 0.557 | 0.753 | 0.457
ATARPYSPFII [LRP5_Y1528_R1529S_YF] | 0.504 | 0.618 | 0.467 | 0.474 | 0.735 | 0.552 | 0.627 | 0.409 | 0.508 | 0.633 | 9.77 | 0.594 | 0.403 | 0.75 | 1.04 | 0.715
ATDLAYYLVRK [ASL_Y375] | 0.85 | 4.21 | 1.04 | 0.543 | 1.41 | 1.19 | 1.63 | 4.91 | 3.03 | 1.27 | 0.786 | 0.885 | 0.602 | 0.988 | 1.25 | 0.798
ATPKGYETDAS [OTC_Y223_P225T] | 0.44 | 0.616 | 0.622 | 0.543 | 0.743 | 0.421 | 0.735 | 0.54 | 0.667 | 0.524 | 0.416 | 0.438 | 0.502 | 0.596 | 0.866 | 0.56
AVHPGYGFLSE [PCCA_Y143] | 0.487 | 1.12 | 0.692 | 0.672 | 0.99 | 0.527 | 0.663 | 0.662 | 0.82 | 0.47 | 0.545 | 0.666 | 0.46 | 0.523 | 0.706 | 0.466
AVISVYDLVAV [PSEN1_Y256] | 6.35 | 0.577 | 0.753 | 4.92 | 1.2 | 6.38 | 1.24 | 0.429 | 0.82 | 4.51 | 13 | 6.2 | 6.18 | 1.03 | 1.03 | 1.39
CDDGKYVYVVT [RPS6KA3_Y488_Y483C] | 0.84 | 1.15 | 1.05 | 0.777 | 1.6 | 0.525 | 1.48 | 0.834 | 1.42 | 0.863 | 0.798 | 0.75 | 0.896 | 0.548 | 0.75 | 0.443
CEHRGYLYLAI [TEK_Y897] | 0.494 | 0.72 | 0.84 | 0.53 | 1.51 | 0.708 | 1.04 | 0.726 | 0.973 | 0.527 | 0.551 | 0.614 | 0.664 | 0.761 | 1.21 | 0.741
CENCHYPILPL [LCK_Y25_V28L] | 0.391 | 0.632 | 0.607 | 0.422 | 0.903 | 0.357 | 0.678 | 0.541 | 0.718 | 0.436 | 0.423 | 0.746 | 0.43 | 1.29 | 1.13 | 0.912
CERFSYFGMKA [SLC15A2_Y60_YF] | 0.529 | 0.938 | 0.94 | 0.745 | 1.26 | 0.544 | 1.13 | 1.24 | 2.66 | 0.575 | 0.467 | 0.557 | 0.571 | 0.577 | 1.02 | 0.704
CGTPDYIAPEI [PRKCG_Y521] | 0.53 | 1.26 | 0.632 | 0.755 | 1.14 | 0.444 | 1.99 | 1.23 | 0.882 | 0.433 | 0.484 | 0.568 | 0.715 | 0.699 | 0.853 | 0.589
CGTPDYIDPEI [PRKCG_Y521_A523D] | 0.581 | 1.85 | 0.813 | 0.725 | 1.41 | 0.454 | 1.58 | 2.28 | 1.31 | 0.481 | 0.531 | 0.7 | 1.1 | 0.52 | 0.814 | 0.461
CKPGFYNLKEK [LAMA1_Y490] | 0.359 | 0.507 | 0.568 | 0.469 | 0.793 | 0.378 | 0.693 | 0.472 | 0.602 | 0.34 | 0.43 | 0.357 | 0.543 | 0.769 | 1.06 | 0.611
CLEKEYFDQHF [NPC1_Y394_R389C] | 0.514 | 1.13 | 0.902 | 0.572 | 1.32 | 0.406 | 1.53 | 0.949 | 1.04 | 0.585 | 0.593 | 0.508 | 0.581 | 0.547 | 0.906 | 0.752
CPPKVYELMRA [ABL2_Y515] | 1.13 | 0.679 | 0.585 | 2.41 | 1.04 | 3.81 | 0.662 | 0.73 | 0.53 | 1.33 | 6.41 | 1.81 | 8.38 | 0.693 | 0.944 | 1.53
CQAHGYSCQLI [STK11_Y156_F157S] | 0.648 | 0.531 | 0.492 | 0.508 | 0.925 | 0.47 | 0.77 | 0.529 | 0.556 | 0.435 | 0.506 | 0.5 | 0.568 | 0.847 | 0.854 | 0.768
CTLLPYFSAPV [DGKE_Y269_R273P_YF] | 0.518 | 0.826 | 0.896 | 0.677 | 1.34 | 0.453 | 1.24 | 0.615 | 1.19 | 0.569 | 0.493 | 0.557 | 0.66 | 0.622 | 0.71 | 0.462
CTNELYMMMRD [FGFR1_Y730] | 0.705 | 1.28 | 0.898 | 1.09 | 1.38 | 2 | 1.34 | 0.935 | 1.35 | 1.15 | 0.693 | 1.47 | 1.86 | 0.502 | 0.633 | 0.427
CTTFHYNYMCN [TP53_Y234_I232F] | 0.547 | 0.713 | 0.955 | 0.629 | 1.05 | 0.475 | 1.03 | 0.696 | 0.842 | 0.507 | 0.659 | 0.514 | 0.809 | 1.82 | 1.17 | 4.4
CTTIHKNFMCN [TP53_Y234_Y234K_YF] | 0.409 | 0.585 | 0.49 | 0.53 | 0.699 | 0.42 | 0.831 | 0.486 | 0.553 | 0.448 | 0.453 | 0.405 | 0.394 | 0.795 | 1.1 | 0.653
CTTIHYIYMCN [TP53_Y234_N235I] | 0.254 | 0.548 | 0.742 | 0.461 | 0.989 | 0.281 | 0.728 | 0.404 | 0.907 | 0.263 | 0.478 | 0.322 | 0.459 | 1.35 | 0.894 | 0.716
CTTIHYMYMCN [TP53_Y234_N235M] | 0.362 | 0.772 | 0.681 | 0.517 | 1.14 | 0.34 | 1.06 | 0.485 | 0.973 | 0.332 | 0.556 | 0.45 | 0.62 | 2.59 | 0.998 | 1.06
CTTIHYSYMCN [TP53_Y234_N235S] | 0.465 | 0.724 | 0.627 | 0.628 | 0.916 | 0.874 | 0.897 | 0.667 | 0.663 | 0.526 | 1.01 | 0.53 | 0.524 | 6.33 | 1.58 | 5.17
CTTIHYTFMCN [TP53_Y234_N235T_YF] | 0.535 | 0.754 | 0.819 | 0.553 | 1.14 | 0.536 | 0.939 | 0.718 | 0.976 | 0.653 | 0.575 | 0.576 | 0.562 | 3.21 | 1.83 | 1.85
CTTIHYYYMCN [TP53_Y234_N235Y] | 1.41 | 2.11 | 0.644 | 0.773 | 1.08 | 0.767 | 0.991 | 2.74 | 1.27 | 1.05 | 0.574 | 0.804 | 0.585 | 1.96 | 1.6 | 2.94
